From publication PMC10243991 come the findings set out here.

pKd: −log10 of the molar value.

For this experiment, the target named is GST-MdPP2AC (apple (Malus × domestica Borkh.)). The experiment can be described thus: MST; GST-MdPP2AC labelled with RED-NHS dye, 100 nM, in 0.05% PBS Tween buffer; MdSnRK2.6 titrated (3.81 × 10^−4 to 25 nM as printed); Monolith NT.115.

The term pKd denotes the negative decadic logarithm of the Kd, by convention in mol/L. Substance MdSnRK2.6-His (enzyme) showed a negative logarithm of the Kd (pKd) of 6.96.
